According to patent US10995363B2, “Nucleotide analogs” (ABBOTT MOLECULAR INC., priority 2013, dated 2021):

Test system: 3′-O-propargyl-dNTP
Assay: Polymerase screening by nucleotide extension assay (incorporation of 3′-O-propargyl-dNTP as substrate)
Type: biochemical
Parameters: key: a minus (“−”) indicates that the polymerase did not produce a detectable product incorporating the 3′-O-propargyl dNTP; a single plus (“+”) indicates that the polymerase produced a detectable product incorporating the 3′-O-propargyl dNTP; three plusses (“+++”) indicates that the polymerase produced a substantial amount of 3′-O-propargyl dNTP incorporation product
Description: For example, in some exemplary assays and/or embodiments, compatible polymerases are identified by a polymerase extension reaction (e.g., a single base extension reaction). See, e.g., Ausebel et al. (eds.), Current Protocols in Molecular Biology. New York: John Wiley & Sons, Inc; Sambrook et al. (1989). Molecular Cloning: A Laboratory Manual. (2nd ed.). Cold Spring Harbor: Cold Spring Harbor Laboratory Press.
For example, identifying compatible polymerases comprises providing a polymerase to test and a reaction buffer appropriate for the polymerase. For polymerases obtained from a commercial supplier (e.g., New England BioLabs, United States Biologicals, Promega, Invitrogen, Worthington, Sigma-Aldrich, Fluka, Finnzymes, Roche, 5 Prime, Qiagen, KAPA Biosystems, Thermo Scientific, Agilent, Life Technologies, etc.), the polymerase is often supplied with an appropriate reaction buffer. An exemplary reaction buffer comprises, e.g., a compatible buffer (e.g., 20 mM Tris-HCl), a salt (e.g., 10 mM KCl), a source of magnesium or manganese (e.g., 2 mM MgSO4; 2 mM MnCl2, etc.), a detergent (e.g., 0.1% TRITON X-100) and has a suitable pH (e.g., approximately pH 8.8 at approximately 25° C.). The activities of some polymerases are improved in the presence of other compounds, such as sulfate and other salts (e.g., 10 mM (NH4)2SO4). Reaction mixtures for polymerase extension reactions are typically tested using Mg^2+ or Mn^2+ as the enzyme cofactor.
Polymerases are tested by providing in the reaction mixture a DNA template, a DNA primer that is complementary to the DNA template, and one or more nucleotides and/or nucleotide analogs. Typical concentrations of template and primer are approximately from 1 to 100 nM and typical concentrations of nucleotides and/or nucleotide analogs are approximately from 1 to 125 μM (e.g., 1 to 125 μM for each nucleotide and/or nucleotide analog and/or 1 to 500 μM total concentration of all nucleotides and/or nucleotide analogs). Templates and primers are synthesized by methods known in the art (e.g., using solid supports and phosphoramidite chemistry) and are available from several commercial suppliers (e.g., Integrated DNA Technologies, Coralville, Iowa).
A pre-annealed primer/template is typically produced for testing polymerases. For example, the primer is typically resuspended in a suitable buffer (e.g., Tris-EDTA, pH 8.0) at a suitable concentration, e.g., at 1 to 500 μM (e.g., at 100 μM) and the template is typically resuspended in a suitable buffer (e.g., Tris-EDTA, pH 8.0) at a suitable concentration, e.g., at 1 to 500 μM (e.g., at 100 μM). […] For example, a pre-annealed primer/template is produced by mixing approximately 100 μl of the approximately 1 to 500 μM (e.g., at 100 μM) primer solution to approximately 100 μl of the approximately 1 to 500 μM (e.g., at 100 μM) template solution in approximately 800 μl of an annealing buffer (e.g., 200 mM Tris, 100 mM potassium chloride, and 0.1 mM EDTA, pH 8.45) to provide a milliliter of primer/template solution. One of skill in the art can scale the volumes and concentrations as appropriate for the concentrations and volumes that are appropriate for the particular analysis. Then, an aliquot (e.g., 100 μl) of the primer/template solution is heated to denature intramolecular and/or intermolecular secondary structures (e.g., by heating at approximately 85° C. to 97° C. (e.g., at approximately 95° C.), e.g., for 1 to 5 minutes (e.g., 2 minutes). Next, the aliquot is cooled to an annealing temperature (e.g., 20° C. to 60° C. (e.g., 25° C.) and incubated for 1 to 10 minutes (e.g., for approximately 5 minutes) to allow the primer and template to anneal to form a primer/template. The primer/template can be diluted in an appropriate substrate dilution buffer (e.g., 20 mM Tris, 10 mM potassium chloride, and 0.01 mM EDTA, pH 8.45; e.g., a 1 to 10 dilution of the annealing buffer described above) for storage. […]

Molecule	product incorporating the 3′-O-propargyl dNTP (co-factor Mg^2+)	product incorporating the 3′-O-propargyl dNTP (co-factor Mn^2+)
Amplitaq Gold: polymerase enzyme sold under the trade name Ampli-Taq (Life Technologies)	−	−
rTth: rTth DNA polymerase (protein, UniProt P52028 1-834, looked up) DNA polymerase I, thermostable: MEAMLPLFEPKGRVLLVDGHHLAYRTFFALKGLTTSRGEPVQAVYGFAKSLLKALKEDGYKAVFVVFDAKAPSFRHEAYEAYKAGRAPTPEDFPRQLALIKELVDLLGFTRLEVPGYEADDVLATLAKKAEKEGYEVRILTADRDLYQLVSDRVAVLHPEGHLITPEWLWEKYGLRPEQWVDFRALVGDPSDNLPGVKGIGEKTALKLLKEWGSLENLLKNLDRVKPENVREKIKAHLEDLRLSLELSRVRTDLPLEVDLAQGREPDREGLRAFLERLEFGSLLHEFGLLEAPAPLEEAPWPPPEGAFVGFVLSRPEPMWAELKALAACRDGRVHRAADPLAGLKDLKEVRGLLAKDLAVLASREGLDLVPGDDPMLLAYLLDPSNTTPEGVARRYGGEWTEDAAHRALLSERLHRNLLKRLEGEEKLLWLYHEVEKPLSRVLAHMEATGVRLDVAYLQALSLELAEEIRRLEEEVFRLAGHPFNLNSRDQLERVLFDELRLPALGKTQKTGKRSTSAAVLEALREAHPIVEKILQHRELTKLKNTYVDPLPSLVHPRTGRLHTRFNQTATATGRLSSSDPNLQNIPVRTPLGQRIRRAFVAEAGWALVALDYSQIELRVLAHLSGDENLIRVFQEGKDIHTQTASWMFGVPPEAVDPLMRRAAKTVNFGVLYGMSAHRLSQELAIPYEEAVAFIERYFQSFPKVRAWIEKTLEEGRKRGYVETLFGRRRYVPDLNARVKSVREAAERMAFNMPVQGTAADLMKLAMVKLFPRLREMGARMLLQVHDELLLEAPQARAEEVAALAKEAMEKAYPLAVPLEVEVGMGEDWLSAKG	−	−
9° N: 9∘N DNA Polymerase (NEB) (protein, UniProt Q56366 1-775, looked up) DNA polymerase: MILDTDYITENGKPVIRVFKKENGEFKIEYDRTFEPYFYALLKDDSAIEDVKKVTAKRHGTVVKVKRAEKVQKKFLGRPIEVWKLYFNHPQDVPAIRDRIRAHPAVVDIYEYDIPFAKRYLIDKGLIPMEGDEELTMLAFDIETLYHEGEEFGTGPILMISYADGSEARVITWKKIDLPYVDVVSTEKEMIKRFLRVVREKDPDVLITYNGDNFDFAYLKKRCEELGIKFTLGRDGSEPKIQRMGDRFAVEVKGRIHFDLYPVIRRTINLPTYTLEAVYEAVFGKPKEKVYAEEIAQAWESGEGLERVARYSMEDAKVTYELGREFFPMEAQLSRLIGQSLWDVSRSSTGNLVEWFLLRKAYKRNELAPNKPDERELARRRGGYAGGYVKEPERGLWDNIVYLDFRSLYPSIIITHNVSPDTLNREGCKEYDVAPEVGHKFCKDFPGFIPSLLGDLLEERQKIKRKMKATVDPLEKKLLDYRQRAIKILANSFYGYYGYAKARWYCKECAESVTAWGREYIEMVIRELEEKFGFKVLYADTDGLHATIPGADAETVKKKAKEFLKYINPKLPGLLELEYEGFYVRGFFVTKKKYAVIDEEGKITTRGLEIVRRDWSEIAKETQARVLEAILKHGDVEEAVRIVKEVTEKLSKYEVPPEKLVIHEQITRDLRDYKATGPHVAVAKRLAARGVKIRPGTVISYIVLKGSGRIGDRAIPADEFDPTKHRYDAEYYIENQVLPAVERILKAFGYRKEDLRYQKTKQVGLGAWLKVKGKK	−	+
